Results: the DeepSol protein solubility set

Test: soluble on expression in E. coli; label from the status in PepcDB or PDB records

Sequence	soluble on expression in E. coli
MAHHHHHHMTQSVSIGADHRLEATTSDCVSSVCFSPKECPMLMTGVASWDGSCSIWQVARNPAGAVISQPAWTTTHDSPLLTMSFSADGRVFFGGCSKTAVMWDLNSNQKAVVASHDLPISCLDFLTLPQTMSQMLITGSWDGKLRWWDLRQQSYVREENLGEPVFALDAQKTVPMMAAATGRLAHVYDVQQMQKVNELKLPDVMKFNLRCITCAPQYDGVGVGSSEGRVSFISMKDAPGCTFKAHITTEKSHYILSQTNFCVHHPTLPLLLSGGGDGNLTVINRADRKVIKTLQCEQKVGTQAIPISAGDISADGSLVAYAHSYDWAMGKSGYRNQPTSVHIRPLS	not soluble
MQASDRFNINSQLEHLQAKYVGTGHADLSRFEWAVNIQRDSYASYIGHYPMLSYFAIAENESIGRERYNFMQKMLLPCGLPPEREEE	soluble
MSKLFSEYKLKDVTLKNRIVMSPMCMYSVENKDGIATDFHFAHYVSRAAGGTGLVILEATAVQEVGRISEFDLGLWNDEQVPALKKLVGGLHYHGAKAGIQLAHAGRKAVLPGEIVAPSAIAFDEKSDKPVELTKEAIKEVVADFKRAAYRAKEAGFDVIEIHAAHGYLIHQFLSPITNRREDNYGGPAGNRYKILSDIIKAVKEVWDGPIIVRVSATDYAHGGLQLEDHIPFAKWMKADGVELIDVSTGGLVNVAPPVFPGYQVPFADEIRRGAGIATGALGLITRGEQAEEILCNERADLIIVGRELLRNPYFAKDAAKQLGETIEAPKQYSRAWK	not soluble
MNQGEIVYQDDDDYYDESEIYDNYEEGAEFIEVNGQLVPHNPAQQNRPGTSSMIQQHNRSMEVNQGLVKDEPIDTSSHRVYVPPPRPVQRKPGPSTPGSSQYTVRNLSNLSGSPSMYDRQPASLPRTVQPMGLEMGNSEQRKVYIDMKDHVSHIRLKTKKKVFAPGQRKPCNCTKSQCLKLYCDCFANGEFCRDCNCKDCHNNIEYDSQRSKAIRQSLERNPNAFKPKIGIARGGITDIERLHQKGCHCKKSGCLKNYCECYEAKVPCTDRCKCKGCQNTETYRMTRYKNSGGAVSNTNALMSLTNASSTATPDSGPGSVVTDEHGDDYEDMLLSHKPKVEMDPRRFPWYYMTDEVVEAATMCMVAQAEEALNYEKVQTEDEKLINMEKLVLREFGRCLEQMITNTTELTQDLDAAPTDDIPGPSTSTS	not soluble
MSLPDTSPDLPAMSPLAVYRQAVEQRGFAPDEAQRRAAEALERCFQALHEAHRHGAIQGVYLWGPVGRGKTWLMDHFYQCLRVPARRQHFHHFMQWVHQRQFELTGTADPLRALARELARDVRVLCFDELFVSDIGDAILLGSLLRIMFEEGVVLVATSNQPPEQLYADGFNRERFLPAIEAIQRHMAVVAVDGGQDHRLHPGRAEQRYWVVEAGQASGFAELFARLSAGEAASTQPIELGHRPLAVHRHSESVLWCSYAQLCEAPLSALDFIGLCDRYRAILMDDLPCLSASQREGRIARGTEDGAQLVEAGDRELPQLSVHDDGVRRFIALVDECYDRKVPLYLEARVPLEALYTEGYLAFAFRRTLSRLREMQLARFGSDSEGGSHHHHHH	soluble
MGSDKIHHHHHHMSAKQYDTLNNAEITSLAHRALACYPAALQGEVRLLCRSENATFLVTSAGKRYALRLHRSHYHQKAEIESELLWLDALRETGIVVPEAVRDASGERVQSLGLSDGSCRYAVLFHWIDGEMPTTSIDPRTFQQLGEITAHLHQHSRQWQKPDGFQRIVWDHHTMVSAQSHWGSWRDAPNLSRDEHGIVEEAIERMGTEMAEFGKAPHRYGLIHADLRLTNLLLHRGETRVIDFDDCGMGWYLHDLAAAISFVEHHPRAAEWVENWLCGYERVAHVSDEELALLPTLLIQRRIQLTAWVGSHAETEMAQSLGPDWASHSVRLCRRYLETRDLPLGVA	not soluble
MAHHHHHHMENILSKVDKIEPFDPKVKEQYNQFKYDVTKQAIESLRERIPQRIIYFNTLVNVNAEPGSILDVRDLDTKTYKYTSNQTEENARKKHKTSDHNVTEKKKDSIEMNTQNDINYEEKKIVIDENIIYTHYVPSHKQISAELEKIKAYSSELIEIIGNIKLWIQLNVPRIEDGNNFGVGIQEEAIQELARVEESAFNLYDAIVKYYMDRAKLATKVIKYPNVHDYQEAVQELDKKEWIHIKITIIDMRNNYIMLYDLLCKNWEKVVKPKNEDAHHRMTF	soluble
MGHHHHHHSHSQIQGVQTNDDLNNDSDDSSDNCVIVGFVKPLAERTPELVELSSDSEDLGSYEKMETVKTQEQEQSYSSGDSDVSRCSSPHSVLGKDEQINKGHCDSSTRIKSKKEEKRSTSLSSPRNLNSSVRGDRVYSPYNHRHRKRGRSRSSDSRSQSRSGHDQKNHRKHHGKKRMKSKRSRSRESSRPRGRRDKKRSRTRDSSWSRRSQTLSLSSESTSRSRSRSSDHGKRRSRSRNRDRYYLRNNYGSRYKWEY	not soluble
IASPQAGMAALTGTLAGTRQGMISFTQQNEQEADRIGIQVLQRAGFDPQAMPSFLEKLLDQARYSTRPPEILLTHPLPESRLADARNRANQMRPVVVQSSADFYFAKARALGMYNSGRNQLTSDLLDQWSKGNVHQQHAAQYGRALQAMEASKYDEARKTLQPLLSAEPNNAWYLDLATDIDLGQKRANDAINRLKNARDLRVNPVLQLNLANAYLQGGQPKAAETILNRYTFSHKDDGNGWDLLAQAEAALNNRDQELAARAESYALAGRLDQAISLLSSASAQAKLGCQQQARYDARIDQLRQLQERFKPYTK	not soluble
GMASSFLEEVDRLITLSGITFHASGTGTPELIKIYQDALGNEFPETYKLFLEKYGTLTFNGVSFYGISKRGLSAASIPDVKFATEQARTFGDINKEMIMIKNSGYGSIFSIDTSIIGSEGEPVIVETNLSFKDNTEKKVVANSFGEFLLEEIELSLTDLG	soluble
MSLGTQEDVLSLISGGFDSGVSSYLHIKRGSKVHYCFFNLGGPAHEIGVKQTAYYLWQKYGSSAKVRFIAIDFAPVVAEILEKIDDGQMGVVLKRMFMRTAGMVAEKFGIQALVTGEALGQVSSQTLTNLRHIDNVTDTLILRPLINWDKEDIIRLAREIGTEDFAKTMPEFCGVISKSPTVKAVKEKLEEEEAKFDFALLDQVVYNARQIDIRDIGKESLEKAPEVELVNSAEEGNAVVLDIRSPDEEDESPLEIVGVEVKHLPFYKLATQFGDLDQSKTYLLYCSRGVMSRLQALYLQEQGFNNVKVYREGHHHHHH	not soluble
MALIQSCSGNTMTTDTIVAQATAPGRGGVGIIRVSGPLAAHVAQTVTGRTLRPRYAEYLPFTDEDGQQLDQGIALFFPNPHSFTGEDVLELQGHGGPVVMDMLIRRILQIKGVRPARPGEFSERAFLNDKMDLTQAEAIADLIDASSEQAAKSALQSLQGEFSKRIHTLVESLIHLRIYVEAAIDFPEEEIDFLADGKVSADLQTIIDNLAAVRREANQGAIMREGMKVVIAGRPNAGKSSLLNALSGKESAIVTDIAGTTRDVLREHIHIDGMPLHIIDTAGLRDASDAVEKIGIERAWEEIRQADRVLFMVDGTTTEATDPQDIWPDFVDKLPENIGITVIRNKADQTGEPLGICHVNQPTLIRLSAKTGQGVDALRQHLKECMGFSGNQEGGFMARRRHLDALERAAEHLAIGQQQLEGYMAGEILAEELRIAQQHLNEITGEFSSDDLLGRIFSSFCIGK	not soluble
MCFSFIMPPAMADILDIWAVDSQIASDGSIPVDFLLPTGIYIQLEVPREATISYIKQMLWKQVHNYPMFNLLMDIDSYMFACVNQTAVYEELEDETRRLCDVRPFLPVLKLVTRSCDPGEKLDSKIGVLIGKGLHEFDSLKDPEVNEFRRKMRKFSEEKILSLVGLSWMDWLKQTYPPEHEPSIPENLEDKLYGGKLIVAVHFENCQDVFSFQVSPNMNPIKVNELAIQKRLTIHGKEDEVSPYDYVLQVSGRVEYVFGDHPLIQFQYIRNCVMNRALPHFILVECCKIKKMYEQEMIAIEAAINRNSSNLPLPLPPKKTRIISHVWENNNPFQIVLVKGNKLNTEETVKVHVRAGLFHGTELLCKTIVSSEVSGKNDHIWNEPLEFDINICDLPRMARLCFAVYAVLDKVKTKKSTKTINPSKYQTIRKAGKVHYPVAWVNTMVFDFKGQLRTGDIILHSWSSFPDELEEMLNPMGTVQTNPYTENATALHVKFPENKKQPYYYPPFDKIIEKAAEIASSDSANVSSRGGKKFLPVLKEILDRDPLSQLCENEMDLIWTLRQDCREIFPQSLPKLLLSIKWNKLEDVAQLQALLQIWPKLPPREALELLDFNYPDQYVREYAVGCLRQMSDEELSQYLLQLVQVLKYEPFLDCALSRFLLERALGNRRIGQFLFWHLRSEVHIPAVSVQFGVILEAYCRGSVGHMKVLSKQVEALNKLKTLNSLIKLNAVKLNRAKGKEAMHTCLKQSAYREALSDLQSPLNPCVILSELYVEKCKYMDSKMKPLWLVYNNKVFGEDSVGVIFKNGDDLRQDMLTLQMLRLMDLLWKEAGLDLRMLPYGCLATGDRSGLIEVVSTSETIADIQLNSSNVAAAAAFNKDALLNWLKEYNSGDDLDRAIEEFTLSCAGYCVASYVLGIGDRHSDNIMVKKTGQLFHIDFGHILGNFKSKFGIKRERVPFILTYDFIHVIQQGKTGNTEKFGRFRQCCEDAYLILRRHGNLFITLFALMLTAGLPELTSVKDIQYLKDSLALGKSEEEALKQFKQKFDEALRESWTTKVNWMAHTVRKDYRS	soluble
MGLRFPPKVLEHILSFIDSNEDRNSVSLVCKSWFETERKTRKRVFVGNCYAVSPAAVTRRFPEMRSLTLKGKPHFADYNLVPDGWGGYAWPWIEAMAAKSSSLEEIRMKRMVVTDECLEKIAASFKDFKVLVLTSCEGFSTDGIAAIAATCRNLRVLELRECIVEDLGGDWLSYFPESSTSLVSLDFSCLDSEVKISDLERLVSRSPNLKSLKLNPAVTLDGLVSLLRCAPQLTELGTGSFAAQLKPEAFSKLSEAFSNCKQLQSLSGLWDVLPEYLPALYSVCPGLTSLNLSYATVRMPDLVELLRRCSKLQKLWVMDLIEDKGLEAVASYCKELRELRVFPSEPDLDATNIPLTEQGLVFVSKGCRKLESVLYFCVQFTNAALFTIARKRPNLKCFRLCVIEPFAPDYKTNEPLDKGFKAIAEGCRDLRRLSVSGLLSDKAFKYIGKHAKKVRMLSIAFAGDSDLMLHHLLSGCESLKKLEIRDCPFGDTALLEHAAKLETMRSLWMSSCFVSFGACKLLSQKMPRLNVEVIDEHPPESRPESSPVERIYIYRTVAGPRMDTPEFVWTIHKNPENGVSHLAIK	not soluble
MGSDKIHHHHHHMYRTAIEELHRWKAKRNKKPLIIRGARQVGKTWLMKEFGRVAFAKTVYISLDNNRRMKELFSADLDVERIVTGLELYSGQKIDPANTLLIFDEVQEVPTALTSLKYFNENAPQYQIISAGSLLGVALHQGTSFPVGKVEFLDLYPLSFTEFLNAMDKGRYVELLQKGDFDMIATFKQTYVDMLKYYYYVGGMPEVVQSFSETKDFGEVREIQQRILDAYEQDFSKHAPHDVVPRIRMLWNSIPAQLTKENKKFIYGLIKEGARAKEYEQSMLWLTDCGLVHKVHRVNAPSLPLKAYEDLKAFKLFLVDIGLLSCMVRLNQGTLLDGNELFKEFKGALTEQYVLQQLRTLKELEAYYWTNDRGSAEIDFVVDDGHKVIPIEVKAETNLKAKSLKMYQEKFRPELSIRASMADYRRENRLLNLPLYMVEMMGLLLKEAE	not soluble
